We go through one protein from article PMC10995091, “Novel glycosidase from Paenibacillus lactis 154 hydrolyzing the 28-O-β-D-glucopyranosyl ester bond of oleanane-type saponins” (Applied Microbiology and Biotechnology, 2024).

Substrate in data set [1]: CC1(C)CC[C@]2(C(=O)O[C@@H]3O[C@H](CO)[C@@H](O)[C@H](O)[C@H]3O)CC[C@]3(C)C(=CC[C@@H]4[C@@]5(C)CC[C@H](O[C@@H]6O[C@H](C(=O)O)[C@@H](O)[C@H](O)[C@H]6O[C@@H]6O[C@H](CO)[C@@H](O)[C@H](O)[C@H]6O)C(C)(C)[C@@H]5CC[C@]43C)[C@@H]2C1
The data set is described as follows: initial rate of ZR1 formation from Ro. The data set is classed as biochemical, Paenibacillus lactis. As to conditions: recombinant free enzyme; pH and temperature of the kinetic run not given; hydrolysis of the C-28 glucosyl ester.

Substrate in the data set “purified protein”: O=[N+]([O-])c1ccc(O[C@@H]2O[C@H](CO)[C@@H](O)[C@H](O)[C@H]2O)cc1
Kind of data set: purified protein. As to conditions: recombinant free enzyme; pH and temperature of the kinetic run not given.

B1: PlGH3 (Paenibacillus lactis; K755R/M754K) (protein)
chain: MRNHTLDTINKTEETVRYVQNPGGPTLGYSEESGVGIIEQDGLFFKDLSRDGKLDNYEDWRLTPEERAKDLASKMTVEQIAGLMLYSRHQSIPALSSGWFAGTYGGKTYEESGAKPWELTDEQIAFLTKDHVRHVLVTTVESPEVAARWNNKIQAFAEGTGLGIPANNSSDPRHASDSSSEFNAGAGGHISMWPETLGLAATFDPEITKKFGMIASREYRALGLATALSPQIDIATEPRWFRFNGTFGEDSKLAADMARAYVDGFQTSEGEREIADGWGYDSVNAMVKHWPGGGSGEAGRDAHYSCGKYAVYPGNNFDEHLVPFTEGAFKLDGKTGKASAVMPYYTISLGQDTVNGENVGNSYNSYLIRDLLRGKYGYDGVVCTDWMITADVSGPKDSFLSGKPWGVEDLTVGERHYKLQMAGVDQFGGNNEIEPVLEAYKIGVREHGEAYMRERFEQSAVRLLKNMFRLGLFENPYLDPQESATLVGNPEFMREGYEAQLKSIVMLKNKNGVLPLRAKSKVYIPKRFLPPGKDWFGNPTPESYDYPVNLEVVSKYFEVTDQPDEAEFGLVFITSPKSGTGYSQEDEERGGNGYVPISLQYKPYTAEHAREISLAGDEHGNEPRNRSYKGKTVIPHNTTDLNMVLETKEKMKGKPVIVSMLLCNPTVVSEFEAEVDAILANFGVQDQAMMEVLTGAAEPSGLLPMQMPAHMRTVEEQLEDVAHDMECHVDSEKHVYDFAFGMNWGGVIEDERTKRYRRS
notes: N-terminal His tag (pET-28a, BamHI/HindIII), E. coli BL21(DE3), Ni-NTA purified
As to B1, in data set [1], the Km (commonly the concentration of substrate that gives half-maximal velocity) amounted to 79.59 ± 3.42 µM; the turnover number (kcat) (as a rule, the number of substrate molecules converted per active site and unit of time at saturation) was determined as 18.52 ± 0.28 s⁻¹. Moreover, in “purified protein”, the Km is recorded as 22.76 ± 1.33 µM and the kcat was determined as 46.18 s⁻¹.
